Experimental data published in US12590288B2, “Method of treating an inflammatory disease by administering an agent which binds a surface receptor on a tuft cell that induces an ILC class 2 inflammatory response” (The Broad Institute, Inc., priority 2017, dated 2026).
“And” between values parts separate entries of the source, which are not always exact repeats. Equal values may be shown once.

B1: RANKL: cytokine added to small intestinal organoids as ex vivo model of M cell differentiation (protein, UniProt O35235 139-316, looked up)
Tumor necrosis factor ligand …: FSGAPAMMEGSWLDVAQRGKPEAQPFAHLTINAASIPSGSHKVTLSSWYHDRGWAKISNMTLSNGKLRVNQDGFYYLYANICFRHHETSGSVPTDYLQLMVYVVKTSIKIPSSHNLMKGGSTKNWSGNSEFHFYSINVGGFFKLRAGEEISIQVSNPSLLDPDQDATYFGAFKVQDID
B2: rIL-13: recombinant murine IL-13 used to induce mucous metaplasia in cultured airway epithelium (protein, UniProt P20109 19-131, looked up)
Interleukin-13: APGPVPRSVSLPLTLKELIEELSNITQDQTPLCNGSMVWSVDLAAGGFCVALDSLTNISNCNAIYRTQRILHGLCNRKAPTTVSSLPDTKIEVAHFITKLLSYTKQLFRHGPF

What was measured:
[1] = test system: small intestinal organoids; experiment: RANKL-mediated in-vitro differentiation of M cells in intestinal organoids (scRNA-seq); format: cell-based, mouse; settings: 5,434 cells from organoids treated with RANKL for 0, 3 and 6 days
Method: Organoid cultures. Following crypt isolation from the whole small intestine^142, the single cell suspension was resuspended in Matrigel® (BD Bioscience) with 1 μM Jagged-1 peptide (Ana-Spec). Roughly 300 crypts embedded in 25 μl of Matrigel® were seeded onto each well of a 24-well plate. Once solidified, the Matrigel® was incubated in 600 μl culture medium (Advanced DMEM/F12, Invitrogen) with streptomycin/penicillin and glutamax and supplemented with EGF (100 ng/mL, Peprotech®), R-Spondin-1 (600 ng/mL, R&D), Noggin (100 ng/mL, Peprotech®), Y-276432 dihydrochloride monohydrate (10 μM, Tocris™)), N-acetyl-1-cysteine (1 μM, Sigma-Aldrich), N2 (1×, Life Technologies), B27 (1×, Life Technologies) and Wnt3A (25 ng/mL, R&D Systems). Fresh media was replaced on day 3, and organoids were passaged by dissociation with TrypLE and resuspended in new Matrigel® on day 6 with a 1:3 split ratio. For selected experiments, organoids were additionally treated with RANKL (100 ng/mL, Biolegends). For T helper cell co-culture experiments, organoids were cultured with Th1, Th2, Th17 or iTregs. Roughly 10,000 T helper cells were added to each well of 500 organoids and were supplemented either to the medium or suspended in the Matrigel®. Treated organoids were dissociated and subjected to scRNA-seq using both methods. […]

[2] = test system: cultured epithelia from proximal or distal trachea; experiment: rIL-13-induced mucous metaplasia in air-liquid interface cultured tracheal epithelia; format: cell-based, mouse; settings: proximal vs distal tracheal epithelium ALI cultures, rIL-13 vs control, 72 hours
Method: Transwell cultures. Cells were cultured and expanded in complete SAGM (small airway epithelial cell growth medium; Lonza, CC-3118) containing TGF-β/BMP4/WNT antagonist cocktails and 5 μM Rock inhibitor Y-27632 (Selleckbio, S1049). To initiate air-liquid interface (ALI) cultures, airway basal stem cells were dissociated from mouse tracheas and seeded onto transwell membranes. After reaching confluence, media was removed from the upper chamber. Mucociliary differentiation was performed with PneumaCult-ALI Medium (StemCell, 05001). Differentiation of airway basal stem cells on an air-liquid interface was followed by directly visualizing beating cilia in real time after 10-14 days. […]
Statistical analysis of proximodistal mucous metaplasia. For the analysis in FIG. 38H,I, the extent of goblet cell hyperplasia was assessed using counts of Muc5ac^+ goblet cells, normalized to counts of GFP^+ ciliated cells. To quantify differences in the count values between the samples in different conditions (n=6, Foxj 1-GFP mice), Applicants fit a negative binomial regression using the ‘glm.nb’ function from the ‘MASS’ package in R. Pairwise comparisons between means for each condition were computed using post hoc tests and p-values were adjusted for multiple comparisons using Tukey's HSD, implemented using the function ‘pairs’ from the ‘emeans’ package in R.

Row | Molecule | differentiated M cells identified by unsupervised clustering [1] | induction of goblet cell differentiation (Muc5ac+ goblet cells normalized to GFP+ ciliated cells) [2]
1 | B1 | 384 cells and 378 cells | 
2 | B2 |  | much higher induction of goblet cell differentiation in the distal epithelium
